Assay results reported in patent publication US20230227508A1, “SPLIT INTEIN-BASED SELECTION FOR PEPTIDE BINDERS” (priority 2020, published 2023).

Molecular target: σN-NpuN-Mdm2* bait fusion (residues 17-124 of Mdm2) (UniProt Q00987)
Assay: cell-based or functional assay

Sequence of σN-NpuN-Mdm2* bait fusion (residues 17-124 of Mdm2) (Q00987 other isoform, or with tags, fused parts or gaps limits assumed): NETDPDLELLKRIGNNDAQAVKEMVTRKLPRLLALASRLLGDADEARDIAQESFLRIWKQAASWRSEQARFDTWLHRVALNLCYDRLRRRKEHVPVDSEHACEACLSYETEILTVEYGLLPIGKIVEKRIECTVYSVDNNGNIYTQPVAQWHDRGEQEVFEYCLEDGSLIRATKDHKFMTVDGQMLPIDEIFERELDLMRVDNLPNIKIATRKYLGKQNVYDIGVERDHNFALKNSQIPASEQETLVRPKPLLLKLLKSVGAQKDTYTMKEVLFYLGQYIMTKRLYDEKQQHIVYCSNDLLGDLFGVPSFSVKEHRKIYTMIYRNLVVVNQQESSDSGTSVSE

“PMI-NpuC-σC peptide fusion (PMI, high affinity variant of residues 15-29 of p53)” was tested, and the difference in output with against without bait and peptide when σN-NpuN was fully induced and the NpuC-σC fragment uninduced was > 200 fold.
